Test results: patent US20090029370A1 (TRUSTEES OF BOSTON UNIVERSITY, published 2009)

Biological target: T1, alpha-fragment of EGFP (alphaCys-fragment, 1-158) without oligonucleotide (Aequorea victoria, UniProt P42212 1-158 = GFP)
T1 construct: range 1-158; also called α-subunit of EGFP
Assay: fluorescence spectra after mixing the fragments in vitro

B1: beta-fragment of EGFP (betaCys-fragment, 159-234 aa) without oligonucleotide (other)
chain: not shown
notes: range 159-234; also called β-subunit of EGFP
binding result: no binding
